Values of other authors as cited in US20020119948A1, “METHOD FOR EXTENDING THE SATIETY OF FOOD BY ADDING A NUTRITIONAL COMPOSITION DESIGNED TO STIMULATE CHOLECYSTOKININ(CCK)” (PacificHealth Laboratories, Inc., priority 2000, published 2002).

Tested on: Individuals
Conditions: CCK administered by injection

B1: cholecystokinin (peptide, UniProt P06307 21-115, looked up)
Cholecystokinin: QPVPPADPAGSGLQRAEEAPRRQLRVSQRTDGESRAHLGALLARYIQQARKAPSGRMSIVKNLQNLDPSHRISDRDYMGWMDFGRRSAEEYEYPS
modifications: Cholecystokinin
decrease in caloric intake: 16-22%
